# Data: patent US20230391861A1 (Stanford University, published 2023)
# T1: PTCH1 on NIH-3T3 / 3T3-Light2 cells (UniProt Q61115 1-1434, limits assumed)
# T1 sequence (looked up): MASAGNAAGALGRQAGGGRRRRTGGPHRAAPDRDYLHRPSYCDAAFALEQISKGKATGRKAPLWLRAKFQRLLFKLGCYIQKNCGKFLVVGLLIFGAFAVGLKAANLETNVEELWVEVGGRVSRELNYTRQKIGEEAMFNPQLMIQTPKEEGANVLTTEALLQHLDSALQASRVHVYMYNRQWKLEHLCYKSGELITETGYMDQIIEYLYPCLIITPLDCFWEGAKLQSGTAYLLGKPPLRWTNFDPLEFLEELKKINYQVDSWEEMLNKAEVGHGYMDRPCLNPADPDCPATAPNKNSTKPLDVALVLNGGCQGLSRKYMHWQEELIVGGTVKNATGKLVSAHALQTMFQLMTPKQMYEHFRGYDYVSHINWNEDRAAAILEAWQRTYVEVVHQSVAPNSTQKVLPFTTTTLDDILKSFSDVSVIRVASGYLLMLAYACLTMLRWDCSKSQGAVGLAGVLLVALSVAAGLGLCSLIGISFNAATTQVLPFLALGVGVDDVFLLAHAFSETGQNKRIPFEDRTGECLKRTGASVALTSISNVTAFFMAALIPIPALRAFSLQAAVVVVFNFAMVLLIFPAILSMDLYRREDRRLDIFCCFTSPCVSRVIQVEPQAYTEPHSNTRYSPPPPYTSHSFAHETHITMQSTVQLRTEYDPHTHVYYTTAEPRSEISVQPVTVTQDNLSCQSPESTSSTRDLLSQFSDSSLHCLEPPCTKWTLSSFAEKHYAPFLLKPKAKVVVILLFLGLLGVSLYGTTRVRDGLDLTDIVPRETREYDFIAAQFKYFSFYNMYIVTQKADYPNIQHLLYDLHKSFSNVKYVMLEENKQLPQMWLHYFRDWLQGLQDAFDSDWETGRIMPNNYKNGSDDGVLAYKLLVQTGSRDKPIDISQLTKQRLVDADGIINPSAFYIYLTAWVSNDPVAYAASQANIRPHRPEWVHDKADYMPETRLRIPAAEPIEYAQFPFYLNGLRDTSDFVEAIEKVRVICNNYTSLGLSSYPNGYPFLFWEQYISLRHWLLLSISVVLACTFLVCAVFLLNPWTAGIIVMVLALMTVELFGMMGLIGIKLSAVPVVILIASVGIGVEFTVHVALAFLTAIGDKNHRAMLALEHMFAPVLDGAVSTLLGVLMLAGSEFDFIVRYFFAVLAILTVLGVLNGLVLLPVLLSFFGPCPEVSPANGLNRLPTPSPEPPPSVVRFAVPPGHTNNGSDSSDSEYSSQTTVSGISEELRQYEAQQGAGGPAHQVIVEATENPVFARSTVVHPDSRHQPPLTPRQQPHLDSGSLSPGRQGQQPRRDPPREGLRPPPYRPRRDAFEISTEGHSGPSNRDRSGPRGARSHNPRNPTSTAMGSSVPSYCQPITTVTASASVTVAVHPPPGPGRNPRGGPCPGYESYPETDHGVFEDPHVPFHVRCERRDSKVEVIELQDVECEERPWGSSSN
# T2: Ptch1-C-NNQ (Ptch1-C with D499N, D500N, E1081Q) (mouse, UniProt Q61115 1-618; Q61115 712-1173)
# T2 construct: range 1-618;range 712-1173; also called PTCH1-NNQ; NNQ variant; not shown: 1D4 tag
# T2 sequence (looked up): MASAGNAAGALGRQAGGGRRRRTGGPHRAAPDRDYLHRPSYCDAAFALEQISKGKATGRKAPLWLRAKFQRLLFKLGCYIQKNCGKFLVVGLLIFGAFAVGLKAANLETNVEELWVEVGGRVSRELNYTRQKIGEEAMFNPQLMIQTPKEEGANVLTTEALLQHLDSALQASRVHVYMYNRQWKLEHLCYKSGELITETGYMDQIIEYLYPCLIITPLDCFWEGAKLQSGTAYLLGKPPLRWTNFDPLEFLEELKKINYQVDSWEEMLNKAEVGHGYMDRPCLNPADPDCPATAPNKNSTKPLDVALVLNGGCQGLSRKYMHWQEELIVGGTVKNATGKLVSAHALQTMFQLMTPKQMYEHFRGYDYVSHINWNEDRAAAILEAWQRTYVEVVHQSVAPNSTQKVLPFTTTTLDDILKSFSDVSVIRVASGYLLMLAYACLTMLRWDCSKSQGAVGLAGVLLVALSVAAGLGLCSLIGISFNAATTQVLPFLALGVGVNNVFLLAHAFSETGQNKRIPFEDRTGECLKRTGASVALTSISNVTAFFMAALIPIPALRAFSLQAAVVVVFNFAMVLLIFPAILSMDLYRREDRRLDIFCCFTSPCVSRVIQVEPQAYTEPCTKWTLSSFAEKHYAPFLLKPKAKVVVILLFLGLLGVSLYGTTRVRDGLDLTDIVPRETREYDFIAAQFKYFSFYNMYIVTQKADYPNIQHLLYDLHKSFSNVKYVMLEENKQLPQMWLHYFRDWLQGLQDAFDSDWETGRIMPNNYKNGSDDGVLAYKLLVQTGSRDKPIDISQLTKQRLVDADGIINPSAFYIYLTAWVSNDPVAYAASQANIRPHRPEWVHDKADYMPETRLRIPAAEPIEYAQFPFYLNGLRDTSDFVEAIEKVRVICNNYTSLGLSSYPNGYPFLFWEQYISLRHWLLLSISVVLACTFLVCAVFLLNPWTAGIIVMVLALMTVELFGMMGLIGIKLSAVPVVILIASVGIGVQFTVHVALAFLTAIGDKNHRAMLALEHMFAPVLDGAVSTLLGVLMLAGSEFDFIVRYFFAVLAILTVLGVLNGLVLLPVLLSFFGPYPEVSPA
# T3: Human PTCH1 on HEPM cells (human, UniProt Q13635 1-1447)
# T3 sequence (looked up): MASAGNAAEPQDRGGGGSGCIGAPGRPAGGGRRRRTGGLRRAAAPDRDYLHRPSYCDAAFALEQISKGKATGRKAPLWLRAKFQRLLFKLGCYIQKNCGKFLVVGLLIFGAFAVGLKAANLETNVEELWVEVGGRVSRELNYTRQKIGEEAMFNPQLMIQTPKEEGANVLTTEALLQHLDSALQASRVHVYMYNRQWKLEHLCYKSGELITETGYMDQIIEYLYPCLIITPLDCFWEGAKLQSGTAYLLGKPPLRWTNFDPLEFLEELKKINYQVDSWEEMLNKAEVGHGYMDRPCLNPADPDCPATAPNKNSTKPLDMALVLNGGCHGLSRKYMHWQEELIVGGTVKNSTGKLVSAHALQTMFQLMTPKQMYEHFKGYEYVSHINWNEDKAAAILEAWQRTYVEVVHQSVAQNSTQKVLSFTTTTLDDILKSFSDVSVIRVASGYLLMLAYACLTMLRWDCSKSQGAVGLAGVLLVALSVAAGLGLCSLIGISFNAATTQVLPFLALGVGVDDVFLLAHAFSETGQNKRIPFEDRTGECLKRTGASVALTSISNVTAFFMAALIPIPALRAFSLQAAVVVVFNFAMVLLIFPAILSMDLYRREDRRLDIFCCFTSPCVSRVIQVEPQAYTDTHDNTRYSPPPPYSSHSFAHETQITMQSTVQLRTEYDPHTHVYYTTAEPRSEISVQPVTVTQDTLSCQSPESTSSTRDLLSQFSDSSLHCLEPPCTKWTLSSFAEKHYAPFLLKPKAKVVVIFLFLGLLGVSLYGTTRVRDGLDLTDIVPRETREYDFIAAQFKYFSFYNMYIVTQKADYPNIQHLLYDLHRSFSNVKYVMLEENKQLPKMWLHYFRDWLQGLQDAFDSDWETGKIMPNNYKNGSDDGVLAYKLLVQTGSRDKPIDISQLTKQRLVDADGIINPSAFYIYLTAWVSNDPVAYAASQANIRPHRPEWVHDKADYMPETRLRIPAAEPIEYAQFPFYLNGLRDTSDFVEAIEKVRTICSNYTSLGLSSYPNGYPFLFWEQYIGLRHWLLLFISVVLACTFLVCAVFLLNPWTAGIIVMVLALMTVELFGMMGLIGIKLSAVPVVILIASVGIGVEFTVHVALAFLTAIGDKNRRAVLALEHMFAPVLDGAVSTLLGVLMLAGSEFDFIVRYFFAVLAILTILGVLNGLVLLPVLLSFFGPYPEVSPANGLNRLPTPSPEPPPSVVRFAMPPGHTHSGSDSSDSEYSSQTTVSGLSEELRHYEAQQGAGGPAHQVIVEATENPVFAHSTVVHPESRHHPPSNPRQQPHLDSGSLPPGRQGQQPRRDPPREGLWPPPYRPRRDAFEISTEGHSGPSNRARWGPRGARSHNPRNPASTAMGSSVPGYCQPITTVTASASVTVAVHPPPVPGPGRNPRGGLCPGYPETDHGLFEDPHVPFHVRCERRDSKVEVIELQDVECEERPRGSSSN
# Tests used:
# [1] = target: T1, PTCH1 on NIH-3T3 / 3T3-Light2 cells; test: cell-based or functional assay
# [2] = target: T2, Ptch1-C-NNQ (Ptch1-C with D499N, D500N, …); test: two-color staining of yeast cells expressing the variants
# [3] = target: T3, Human PTCH1 on HEPM cells; test: cell-based or functional assay
Molecule,"EC50, Gli-luciferase assay in NIH-3T3 cells [1] [nM]",binding result [2],further results
"T23 nanobody (VHH, also called 23T) VHH: QVQLQESGGGLVQAGGSLRLSCAASGNIFAYYIMGWYRQAPGKERELVATIDIGGNTNYADSVKGRFTISRDNAKNTVYLQMNSLKPEDTAVYYCAVQAVPYRYRRYWGQGTQVTVSS",,binds,
"Nanobody clone 23 (VHH, Initial clone from the synthetic yeast display library; also called Nb23; NB23) VHH: QVQLQESGGGLVQAGGSLRLSCAASGNIFAYYIMGWYRQAPGKERELVAGIDIGGNTNYADSVKGRFTISRDNAKNTVYLQMNSLKPEDTAVYYCAVQAVPYRYHGYWGQGTQVTVSS",,binds,

# Further lines, with some results ahead:
"EC50, Gli-luciferase assay in NIH-3T3 cells [1] [nM]",binding result [2],Molecule,further results
1.4,,ShhNp (ligand),
6.9,,TI23 nanobody (VHH) VHH: QVQLQESGGGLVQAGGSLRLSCAASGNIFAYYIMGWYRQAPGKERELVATIDIGGNTNYADSVKGRFTISRDNAKNNVYLQMNSLKPEDTAVYYCAVQAVPIRYRRYWGQGTQVTVSS,"EC50, transcription of GLI1 in HEPM cells (qPCR) [3]: 16 nM; EC50, transcription of PTCH1 in HEPM cells (qPCR) [3]: 18.5 nM; EC50, Gli-dependent luciferase reporter in 3T3 cells [1]: 8.6 nM; maximum response relative to ShhNp, Gli-luciferase assay [1]: ~75%"
